Reference: patent publication US20230112123A1 (IMMUNEONCO BIOPHARMACEUTICALS SHANGHAI, published 2023)
Values belong to the binder of their own block, whether it stands above or below them.

Assays:
[1] = molecular target: T1, human CD70 (human, UniProt P32970 1-193); assay: flow cytometry on CHO cells expressing human CD70
T1 construct: whole, on cells; Stated as human for the CHO transfectants; also called cell surface CD70s
T1 sequence (looked up): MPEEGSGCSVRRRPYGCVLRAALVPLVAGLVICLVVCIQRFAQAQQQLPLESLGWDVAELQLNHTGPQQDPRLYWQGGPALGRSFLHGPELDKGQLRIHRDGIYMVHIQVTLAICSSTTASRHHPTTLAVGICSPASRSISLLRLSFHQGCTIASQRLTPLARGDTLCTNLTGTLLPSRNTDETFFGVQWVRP
Experimental: (§1) Cells were washed with 1% BSA-PBS once, and then incubated with 100 μl 1:500 diluted FITC-conjugated secondary antibody against human IgG-Fc (Cat #F9512, Sigma) at 4° C. for 45 min. Cells were washed once with 1% BSA-PBS, re-suspended in 200 μl 1% BSA-PBS, and then subject to FACS analysis using a flow cytometer (Merck Millipore, Guava® easyCyte 5HT).

[2] = molecular target: T1, human CD70; assay: flow cytometry on CD70+ CHO cells
Experimental: as §1

[3] = molecular target: T1, human CD70; assay: flow cytometry on CD47+CD70+ Raji cells

B1: IMM40C (antibody, human IgG1, kappa, V domains shown)
VH: QVQLQQSGPEVVRPGVSVKISCKGSGYTFTDSALHWVKQSHAKSLEWIGVISTYDGDTDYNQKFKGKATMTVDKSSSTAYMELARLTSEDSAIYYCARRGYYDYDWFPYWGQGTLVTVSA
VL: DIVLTQSPASLAISLGQRATISCRASKSVSASGYSFLHWYQQKPGQPPKLLIYLASNLESGVPARFSGSGSGTDFTLNIHPVEEEDAATFYCQHSRELPPTFGGGTKLEIKR
notes: Chimeric IgG: mouse variable regions with human IgG1 and human kappa constant regions; expressed in CHO-S cells
- binding result [1]: binds

B2: IMM40H (antibody, human IgG1, kappa, V domains shown)
VH: QVQLVQSGAEVKKPGASVKVSCKVSGYTFTDSALHWVRQAPGKGLEWMGVISTYDGDTDYNQKFKGRVTMTEDTSTDTAYMELSSLRSEDTAVYYCARRGYYDYDWFPYWGQGTLVTVSA
VL: DIVLTQSPASLAVSPGQRATITCRASKSVSASGYSFLHWYQQKPGQPPKLLIYLASNLESGVPARFSGSGSGTDFTLTINPVEANDTANYYCQHSRELPPTFGGGTKVEIKR
notes: Humanized IgG1/kappa; X=N for IMM40H; N85 is a glycosylation site in the light chain variable region; also called IMM4OH
- binding result [2]: binds

More lines, now with the values ahead:

- binding result [2]: binds
B3: IMM40M (antibody, human IgG1, kappa, V domains shown)
VH: QVQLVQSGAEVKKPGASVKVSCKVSGYTFTDSALHWVRQAPGKGLEWMGVISTYDGDTDYNQKFKGRVTMTEDTSTDTAYMELSSLRSEDTAVYYCARRGYYDYDWFPYWGQGTLVTVSA
VL: DIVLTQSPASLAVSPGQRATITCRASKSVSASGYSFLHWYQQKPGQPPKLLIYLASNLESGVPARFSGSGSGTDFTLTINPVEAEDTANYYCQHSRELPPTFGGGTKVEIKR
notes: IMM40H with N85E in the light chain variable region, which removes a glycosylation site; also called IMM4OM

- binding result [3]: binds
B4: Cusatuzumab (antibody, human IgG1, lambda, V domains shown)
VH: EVQLVESGGGLVQPGGSLRLSCAASGFTFSVYYMNWVRQAPGKGLEWVSDINNEGGTTYYADSVKGRFTISRDNSKNSLYLQMNSLRAEDTAVYYCARDAGYSNHVPIFDSWGQGTLVTVSS
VL: QAVVTQEPSLTVSPGGTVTLTCGLKSGSVTSDNFPTWYQQTPGQAPRLLIYNTNTRHSGVPDRFSGSILGNKAALTITGAQADDEAEYFCALFISNPSVEFGGGTQLTVLG
notes: Anti-CD70 IgG used as comparator
